From paper PMC5623874 (Frontiers in Immunology, 2017)

B1: anti-MARV NP sdAb A monomer (pecan126) (VHH)
VHH: EVKLQESGGGLVQAGESLRLSCAVPPEVFDIRTVAWYRQVPLGKGRELLSSITPWNKTTYEDSVKDRFTISRDNAKYTVYLQMNDLKPEDTAVYYCAQGWGIASMRYWGQGTQVTVSS
notes: also called anti-MARV sdAb A; source: E. coli HBV88 periplasm, purified (IMAC, gel filtration)
B2: HA-tagged Marburgvirus (Marburg Musoke) nucleoprotein, polymeric (natural protein)
chain: MDLHSLLELGTKPTAPHVRNKKVILFDTNHQVSICNQIIDAINSGIDLGDLLEGGLLTLCVEHYYNSDKDKFNTSPVAKYLRDAGYEFDVIKNADATRFLDVSPNEPHYSPLILALKTLESTESQRGRIGLFLSFCSLFLPKLVVGDRASIEKALRQVTVHQEQGIVTYPNHWLTTGHMKVIFGILRSSFILKFVLIHQGVNLVTGHDAYDSIISNSVGQTRFSGLLIVKTVLEFILQKTDSGVTLHPLVRTSKVKNEVASFKQALSNLARHGEYAPFARVLNLSGINNLEHGLYPQLSAIALGVATAHGSTLAGVNVGEQYQQLREAAHDAEVKLQRRHEHQEIQAIAEDDEERKILEQFHLQKTEITHSQTLAVLSQKREKLARLAAEIENNIVEDQGFKQSQNRVSQSFLNDPTPVEVTVQARPMNRPTALPPPVDDKIEHESTEDSSSSSSFVDLNDPFALLNEDEDTLDDSVMIPGTTSREFQGIPEPPRQSQDLNNSQGKQEDESTNRIKKQFLRYQELPPVQEDDESEYTTDSQESIDQPGSDNEQGVDLPPPPLYAQEKRQDPIQHPAANPQDPFGSIGDVNGDILEPIRSPSSPSAPQEDTRMREAYELSPDFTNDEDNQQNWPQRVVTKKGRTFLYPNDLLQTNPPESLITALVEEYQNPVSAKELQADWPDMSFDERRHVAMNL
notes: also called MARV HA-NP; HA-NP
B3: anti-MARV NP sdAb B monomer (pecan126) (VHH)
VHH: KVQLQESGGGLVQAGGSLRLSCAASGGTFSINTLGWYRRAPGKEREFVARISSGGITRYADSVKGRFTISRDNGKNTVYLDMNSLKPEDTAVYYCMYRNWGGGLDVYWGQGTQVTVSS
notes: also called anti-MARV sdAb B; source: E. coli HBV88 periplasm, purified (IMAC, gel filtration)
B4: anti-MARV NP sdAb C monomer (pecan126) (VHH)
VHH: KVQLQESGGGLVQVGGSLRLSCKASGFTFRSSAMGWYRRAPGKQRELVASLTTTGTADYGDFVKGRFTISRDNAENTVDLHMNSLKPEDTAVYYCHEDPYGMESLRYWGQGTQVTVSS
notes: also called anti-MARV sdAb C; source: E. coli HBV88 periplasm, purified (IMAC, gel filtration)

Key:
[1] = molecular target: T1, Marburgvirus (Marburg Musoke) nucleoprotein, polymeric (Marburg virus, Musoke, UniProt P27588); assay: ELISA; details: both partners purified
T1 construct: source: HEK 293T, transient transfection, purified (CsCl gradient)

[2] = molecular target: the molecule itself; assay: transmission electron microscopy of HA-NP and sdAb mixtures

Binder	binding result [1]	binding result [2]
B1	binds	–
B2	–	binds
B3	binds	–
B4	binds	–
